Positions count from the first letter of the chain named. Names may count otherwise.
B1: AtGOX1 (Arabidopsis thaliana) (protein)
chain: MEITNVTEYDAIAKQKLPKMVYDYYASGAEDQWTLQENRNAFARILFRPRILIDVSKIDMTTTVLGFKISMPIMVAPTAMQKMAHPDGEYATARAASAAGTIMTLSSWATSSVEEVASTGPGIRFFQLYVYKNRNVVEQLVRRAERAGFKAIALTVDTPRLGRRESDIKNRFTLPPNLTLKNFEGLDLGKMDEANDSGLASYVAGQIDRTLSWKDVQWLQTITKLPILVKGVLTGEDARIAIQAGAAGIIVSNHGARQLDYVPATISALEEVVKATQGRIPVFLDGGVRRGTDVFKALALGASGIFIGRPVVFSLAAEGEAGVRKVLQMLRDEFELTMALSGCRSLKEISRNHITTEWDTPRPSARL
notes: full length (367 residues), N-terminal His-tag, pET28a, expressed in Escherichia coli
B2: AtGOX2 (Arabidopsis thaliana) (protein)
chain: MEITNVTEYDAIAKAKLPKMVYDYYASGAEDQWTLQENRNAFARILFRPRILIDVNKIDMATTVLGFKISMPIMVAPTAFQKMAHPDGEYATARAASAAGTIMTLSSWATSSVEEVASTGPGIRFFQLYVYKNRKVVEQLVRRAEKAGFKAIALTVDTPRLGRRESDIKNRFTLPPNLTLKNFEGLDLGKMDEANDSGLASYVAGQIDRTLSWKDIQWLQTITNMPILVKGVLTGEDARIAIQAGAAGIIVSNHGARQLDYVPATISALEEVVKATQGRVPVFLDGGVRRGTDVFKALALGASGIFIGRPVVFALAAEGEAGVKKVLQMLRDEFELTMALSGCRSLSEITRNHIVTEWDTPRHLPRL
notes: full length, N-terminal His-tag, pET28a, expressed in Escherichia coli
B3: ZmGO1 (Zea mays) (protein)
chain: MGEITNVMEYQAIAKQKLPKMAYDYYASGAEDEWTLQENREAFSRILFRPRILIDVSKIDMTTTVLGFKISMPIMVAPTAMQKMAHPDGEYATARAAAAAGTIMTLSSWATSSVEEVASTGPGIRFFQLYVYKDRKVVEQLVRRAERAGFKAIALTVDTPRLGRREADIKNRFVLPPHLTLKNFEGLDLGKMDQAADSGLASYVAGQVDRTLSWKDVKWLQTITTLPILVKGVLTAEDTRLAVANGAAGIIVSNHGARQLDYVPATISALEEVVKAARGQLPVFVDGGVRRGTDVFKALALGAAGVFVGRPVVFSLAAAGEAGVSNVLRMLRDEFELTMALSGCTSLAEITRKHIITESDKLSAIPSRL
notes: as for B2
B4: ZmGO1 (Zea mays; T159V) (protein)
chain: B3 chain with T159V
notes: as for B2
B5: AtGOX1 (Arabidopsis thaliana; T265D) (protein)
chain: B1 chain with T265D
B6: AtGOX1 (Arabidopsis thaliana; T158V) (protein)
chain: B1 chain with T158V
B7: AtGOX1 (Arabidopsis thaliana; T4D) (protein)
chain: B1 chain with T4D
B8: AtGOX2 (Arabidopsis thaliana; T265D) (protein)
chain: B2 chain with T265D
B9: AtGOX2 (Arabidopsis thaliana; T4D) (protein)
chain: B2 chain with T4D
B10: AtGOX2 (Arabidopsis thaliana; T158V) (protein)
chain: B2 chain with T158V

Substrate: CCCCCCC(O)C(=O)O
Test: H2O2 detection, horseradish peroxidase / o-dianisidine coupled assay
Format: biochemical, Arabidopsis thaliana
Details: 50 mM Tris-HCl pH 8.0, 0.1 mM FMN, 30 °C

Going from B1 to B2, the Km falls from 757 ± 82 µM to 487 ± 99 µM (1.6-fold).

Going from B1 to B2, the kcat falls from 5.95 ± 0.58 s⁻¹ to 3.78 ± 1.26 s⁻¹ (1.6-fold).

Substrate: CCCCCCC(O)C(=O)O
Test: as above
Format: biochemical, Zea mays
Details: 50 mM Tris-HCl pH 8.0, 0.1 mM FMN, 30 °C
Remark: another data set of the same source
Text: H2O2 detection, horseradish peroxidase / o-dianisidine coupled assay on ZmGO1

Work on B3 yielded a Km of 136 ± 19 µM.

In the case of B3, the kcat is reported as 5.89 ± 0.14 s⁻¹.

Same assay, conditions: 50 mM Tris-HCl pH 8.0, 0.1 mM FMN, 30 °C, printed as T158V in Table 3

B4 gave a Km of 48 ± 36 µM.

B4 was tested, and the kcat was 3.22 ± 0.39 s⁻¹.

Substrate: C[C@H](O)C(=O)O
Test: purified protein
Details: 50 mM Tris-HCl pH 8.0, 0.1 mM FMN, 30 °C

Going from B3 to B1, the Km rises from 495 ± 75 µM to 1664 ± 293 µM (3.4-fold).

Protein B2 has a Km of 2094 ± 791 µM.

B3 and B1 are within 1.5-fold of each other in kcat: 10.8 s⁻¹ for the first, 9.09 s⁻¹ for the second.

With B2 the kcat was 6.81 s⁻¹.

Substrate: O=C(O)CO
Test: purified protein
Details: 50 mM Tris-HCl pH 8.0, 0.1 mM FMN, 30 °C

First: B5
Second: B6
The Km of the first is 5.3-fold higher: 531 ± 50 µM for the first, 100 ± 19 µM for the second.

B7 and B1 are within error of each other in Km: 151 ± 44 µM for the first, 210 ± 90 µM for the second.

B8 and B9 are within error of each other in Km: 388 ± 159 µM for the first, 390 ± 215 µM for the second.

First: B2
Second: B10
The Km of the first is 2.1-fold higher: 279 ± 30 µM for the first, 133 ± 83 µM for the second.

Going from B5 to B6, the kcat rises from 0.14 ± 0.06 s⁻¹ to 2.36 ± 0.47 s⁻¹ (17-fold).

Going from B7 to B1, the kcat rises from 0.61 ± 0.46 s⁻¹ to 11.12 ± 3.08 s⁻¹ (18-fold).

B8 and B9 are within error of each other in kcat: 2.06 ± 1.09 s⁻¹ for the first, 1.40 ± 0.42 s⁻¹ for the second.

Compared with B2, B10 is 4.4-fold lower in kcat: 10.93 ± 3.48 s⁻¹ for the first, 2.49 ± 0.60 s⁻¹ for the second.

Source: PMC7020226, “Enzymatic Properties of Recombinant Phospho-Mimetic Photorespiratory Glycolate Oxidases from Arabidopsis thaliana and Zea mays” (Plants, 2019)
